These results are taken from PMC7567103 (Nature Communications, 2020).

Numbering of substitutions follows the chain as printed. Where no end group is shown, it is not given here.

The target of one assay is GHRHR(23-423) (human) (UniProt Q02643).
The next assay has as its system GHRHR WT. Description: cAMP accumulation, GHRH vs GHRH(D3A) (Supplementary Fig. 6c). The assay is classed as cell-based, human. The note with it: D3A in GHRH; WT receptor. The method, then: GHRH-stimulated cAMP accumulation was measured by a LANCE Ultra cAMP kit (PerkinElmer). Briefly, 24 h after transfection with GHRHR(23-423), GHRHR(23-405), GHRHR(23-405)-LgBiT-2MBP, or HA-Flag-GHRHR (WT and mutants), HEK 293 T cells (3000/well in 384-well white plates, PerkinElmer) were digested by 0.2% (w/v) EDTA and 5 μL stimulation buffer (HBSS supplemented with 5 mM HEPES, 0.5 mM IBMX, and 0.1% (w/v) BSA, pH 7.4). Different concentrations (5 μL) of GHRH were then added and the stimulation lasted for 30 min at RT. The reaction was stopped by adding 5 μL Eu-cAMP tracer and 5 μL ULight-anti-cAMP. After 1 h RT incubation, TR-FRET signals (excitation: 320 nm, emission: 615 and 665 nm) were measured by an EnVision (PerkinElmer).
For orientation: Changes in cAMP serve as a functional read-out for many G protein-coupled receptors.

For assay [1], the target named is GHRHR(23-423) (WT) (human) (UniProt Q02643).
Assay [2] deals with HA-Flag-GHRHR N346A (human) (UniProt Q02643).
Assay [3] addresses HA-Flag-GHRHR R357A (human) (UniProt Q02643).
Assay [4] concerns the target HA-Flag-GHRHR W282A (human) (UniProt Q02643).
Assay [5] has as its target HA-Flag-GHRHR T213A (human) (UniProt Q02643).
In assay [6] the target is HA-Flag-GHRHR C195A (human) (UniProt Q02643).
Assay [7] has as its target HA-Flag-GHRHR F187A (human) (UniProt Q02643).
In assay [8] the target is HA-Flag-GHRHR K182A (human) (UniProt Q02643).
In assay [9] the target is HA-Flag-GHRHR H210A (human) (UniProt Q02643).
A further assay deals with T1, HA-Flag-GHRHR K182A (human, UniProt Q02643 23-423, K182^2.67bA).
T1 sequence (looked up): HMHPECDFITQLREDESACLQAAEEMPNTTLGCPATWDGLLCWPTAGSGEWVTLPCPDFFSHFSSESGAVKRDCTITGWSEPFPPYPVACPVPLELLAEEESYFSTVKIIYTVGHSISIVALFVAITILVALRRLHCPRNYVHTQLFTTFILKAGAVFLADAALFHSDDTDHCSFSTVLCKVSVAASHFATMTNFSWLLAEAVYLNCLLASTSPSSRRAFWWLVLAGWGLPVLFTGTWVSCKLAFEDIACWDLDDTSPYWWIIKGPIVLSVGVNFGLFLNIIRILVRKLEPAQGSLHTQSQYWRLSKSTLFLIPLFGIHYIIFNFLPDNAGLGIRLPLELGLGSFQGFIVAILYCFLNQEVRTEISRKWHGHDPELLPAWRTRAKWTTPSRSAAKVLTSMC
Description: cell-based or functional assay.

A further assay addresses T2, HA-Flag-GHRHR F187A (human, UniProt Q02643 23-423, F187^ECL1A).
T2 sequence (looked up): T1 sequence (looked up) with A160K, F165A
Description: cell-based or functional assay.

The next assay concerns the target T3, HA-Flag-GHRHR R357C (human, UniProt Q02643 23-423, R357C).
T3 sequence (looked up): T1 sequence (looked up) with A160K, R335C
Description: cell-based or functional assay.

The next assay deals with T4, HA-Flag-GHRHR C195A (human, UniProt Q02643 23-423, C195^ECL1A).
T4 sequence (looked up): T1 sequence (looked up) with A160K, C173A
Description: cell-based or functional assay.

GHRH D^3PA (peptide) displayed a cAMP accumulation in HEK 293 T cells: fold loss of potency with GHRHR(23-423) (human) of 4 fold.

Regarding “GHRH(D3A): GHRH with Asp3 replaced by Ala (YAAAIFTNSYRKVLGQLSARKLLQDIMSRQQGESNQERGARARL; ends and bridges not checked; UniProt P01286 32-75, looked up, variant D3A)”, the “diminished potency vs GHRH” value in the assay on GHRHR WT is recorded as ~ 4 fold.

For the molecule “growth hormone-releasing hormone (GHRH) (from UniProt P01286 32-75) (peptide)”, in assay [1], the Supplementary Table 4, Wild-type: pEC50 of GHRH-induced cAMP accumulation, HEK 293T cells is 9.74 -log M. Moreover, in assay [2], the Supplementary Table 4, N346A: pEC50 of GHRH-induced cAMP accumulation, HEK 293T cells was 8.85 -log M. Besides, in [3], the Supplementary Table 4, R357A: pEC50 of GHRH-induced cAMP accumulation, HEK 293T cells was 6.87 -log M. In addition, the Supplementary Table 4, W282A: pEC50 of GHRH-induced cAMP accumulation, HEK 293T cells in assay [4] is 7.88 -log M. The Supplementary Table 4, T213A: pEC50 of GHRH-induced cAMP accumulation, HEK 293T cells in assay [5] is 9.35 -log M. The Supplementary Table 4, C195A: pEC50 of GHRH-induced cAMP accumulation, HEK 293T cells in assay [6] is 7.67 -log M. Moreover, in assay [7], the Supplementary Table 4, F187A: pEC50 of GHRH-induced cAMP accumulation, HEK 293T cells was 8.94 -log M. In addition, the Supplementary Table 4, K182A: pEC50 of GHRH-induced cAMP accumulation, HEK 293T cells in assay [8] was 7.4 -log M. Besides, the Supplementary Table 4, H210A: pEC50 of GHRH-induced cAMP accumulation, HEK 293T cells in assay [9] is 9 -log M.

B1: Growth hormone-releasing hormone (GHRH) (peptide, UniProt P01286 32-75, looked up)
peptide: YADAIFTNSYRKVLGQLSARKLLQDIMSRQQGESNQERGARARL
For B1, the “cAMP accumulation in HEK 293 T cells: fold loss of GHRH potency” value with HA-Flag-GHRHR K182A is approximately 200 fold; in the assay with HA-Flag-GHRHR F187A, approximately 5 fold; with HA-Flag-GHRHR R357C, 1000 fold; with HA-Flag-GHRHR C195A, approximately 100 fold.
